Assay results from patent EP4703372A1.
Read-outs that look alike come from different tables or passages of the source.

Key:
[1] = biological target: Humira, which included human κ light chain subgroup 1 (Vκ1) (manufactured by Eisai Co., Ltd.); experiment: ratio of ELISA A450 on Humira (Vκ1) to A450 on Human PCSK9 antibody (Vκ4)
[2] = biological target: Humira, which included human κ light chain subgroup 1 (Vκ1) (manufactured by Eisai Co., Ltd.); experiment: ratio of ELISA A450 on Humira (Vκ1) to A450 on Human PDGFR alpha antibody (Vκ3)
[3] = biological target: Human PCSK9 antibody, which included human κ light chain subgroup 4 (Vκ4) (manufactured by R&D Systems, Inc.); experiment: ELISA, antibody immobilised, binder at 50 ug/mL, anti-6-His detection (repeats Table 17)
[4] = biological target: Human PDGFR alpha antibody, which included human κ light chain subgroup 3 (Vκ3) (manufactured by R&D Systems, Inc.); experiment: as above
[5] = biological target: Humira, which included human κ light chain subgroup 1 (Vκ1) (manufactured by Eisai Co., Ltd.); experiment: as above
[6] = biological target: Humira, which included human κ light chain subgroup 1 (Vκ1) (manufactured by Eisai Co., Ltd.); experiment: ratio of ELISA A450 on Humira (Vκ1) to A450 on Human PCSK9 antibody (Vκ4) (repeats Table 17)
[7] = biological target: Human PCSK9 antibody, which included human κ light chain subgroup 4 (Vκ4) (manufactured by R&D Systems, Inc.); experiment: ELISA, antibody immobilised (10 ug/mL), binder at 50 ug/mL, anti-6-His detection, blank subtracted
[8] = biological target: Human PDGFR alpha antibody, which included human κ light chain subgroup 3 (Vκ3) (manufactured by R&D Systems, Inc.); experiment: as above
[9] = biological target: Humira, which included human κ light chain subgroup 1 (Vκ1) (manufactured by Eisai Co., Ltd.); experiment: as above
[10] = biological target: Humira, which included human κ light chain subgroup 1 (Vκ1) (manufactured by Eisai Co., Ltd.); experiment: ratio of ELISA A450 on Humira (Vκ1) to A450 on Human PDGFR alpha antibody (Vκ3) (repeats Table 17)
[11] = biological target: Herceptin, which included human κ light chain subgroup 1 (Vκ1) (manufactured by Chugai Pharmaceutical Co., Ltd.); experiment: ELISA, antibody immobilised (10 ug/mL), binder at 50 ug/mL, anti-6-His detection, blank subtracted
[12] = biological target: Human CTLA4 antibody, which included human κ light chain subgroup 3 (Vκ3) (manufactured by R&D Systems, Inc.); experiment: as above
[13] = biological target: Herceptin, which included human κ light chain subgroup 1 (Vκ1) (manufactured by Chugai Pharmaceutical Co., Ltd.); experiment: as above; remark: listed apart in the source
[14] = biological target: Human CTLA4 antibody, which included human κ light chain subgroup 3 (Vκ3) (manufactured by R&D Systems, Inc.); experiment: as above; remark: listed apart in the source

| Substance | Absorbance ratio (Vκ1/Vκ4) [1] | Absorbance ratio (Vκ1/Vκ3) [2] | absorbance at 450 nm (absorbance at 450 nm) [3] | absorbance at 450 nm (absorbance at 450 nm) [4] | absorbance at 450 nm (absorbance at 450 nm) [5] | Absorbance ratio (Vκ1/Vκ4) [6] | absorbance at 450 nm (absorbance at 450 nm) [7] | absorbance at 450 nm (absorbance at 450 nm) [8] | absorbance at 450 nm (absorbance at 450 nm) [9] | Absorbance ratio (Vκ1/Vκ3) [10] | absorbance at 450 nm (absorbance at 450 nm) [11] | absorbance at 450 nm (absorbance at 450 nm) [12] | absorbance at 450 nm (absorbance at 450 nm) [13] | absorbance at 450 nm (absorbance at 450 nm) [14] |
| --- | --- | --- | --- | --- | --- | --- | --- | --- | --- | --- | --- | --- | --- | --- |
| C3 immunoglobulin-binding domain of Protein L derived from Finegoldia magna (FpL_C3), wild-type | 0.9 | 1.2 | 0.91 | 0.71 | 0.82 | 0.9 | 0.91 | 0.71 | 0.82 | 1.2 | – | – | – | – |
| FpL_C3KR (all lysine residues of FpL_C3 substituted with arginine) (designed binder) | – | – | – | – | – | – | 0.77 | 0.21 | – | – | 0.92 | 0.32 | 0.86 | 0.07 |
| FpL_C3KR_K38E (K(R)38E introduced into FpL_C3KR) (designed binder) | – | – | – | – | – | – | – | – | – | – | – | – | – | 0.98 |
